Laboratory results: article PMC5450233, “SKIP controls lysosome positioning using a composite kinesin-1 heavy and light chain-binding domain” (Journal of Cell Science, 2017)

B1: GST–KHC(815-955) (domain or fragment)
chain: not shown
notes: 3C protease site between GST and KHC (pMW-GST); source: E. coli BL21(DE3), purified (glutathione–Sepharose beads)
B2: SKIP(1-310) (domain or fragment, UniProt Q8IWE5 1-310, looked up)
chain: MEPGEVKDRILENISLSVKKLQSYFAACEDEIPAIRNHDKVLQRLCEHLDHALLYGLQDLSSGYWVLVVHFTRREAIKQIEVLQHVATNLGRSRAWLYLALNENSLESYLRLFQENLGLLHKYYVKNALVCSHDHLTLFLTLVSGLEFIRFELDLDAPYLDLAPYMPDYYKPQYLLDFEDRLPSSVHGSDSLSLNSFNSVTSTNLEWDDSAIAPSSEDYDFGDVFPAVPSVPSTDWEDGDLTDTVSGPRSTASDLTSSKASTRSPTQRQNPFNEEPAETVSSSDTTPVHTTSQEKEEAQALDPPDACTEL
notes: SKIP (PLEKHM2), residues 1-310; also called SKIP(1-310) with GST removed by 3C protease; source: E. coli, purified as a GST fusion, GST cleaved with 3C protease

Tests used:
Details in all cases: both partners purified
[1] = target: B2; assay: pull-down; GST–KHC truncations (0.5 nmol) on glutathione–Sepharose beads incubated with 300 μl of 1.2 μM SKIP(1-310) for 2 h at 4°C; 25 mM HEPES pH 7.5, 150 mM NaCl, 5 mM β-mercaptoethanol; Coomassie-stained SDS-PAGE
[2] = target: B2; assay: pull-down; GST–KHC(815-955) (0.5 nmol) on glutathione beads incubated with increasing concentrations of SKIP(1-310) in solution (up to 3.5 μM); SDS-PAGE, Coomassie, densitometry; one-site specific binding model with Hill slope; non-equilibrium, value to be interpreted with caution
[3] = target: B1; assay: as above

Sequence of GST–KHC(815-955) (P56536 815-955): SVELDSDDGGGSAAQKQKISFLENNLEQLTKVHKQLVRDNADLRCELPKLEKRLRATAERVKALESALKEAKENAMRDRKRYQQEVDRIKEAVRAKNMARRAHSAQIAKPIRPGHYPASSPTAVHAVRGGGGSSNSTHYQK

Row | binding result [1] | Binder | further results
1 | binds | GST–KHC(815-917) (domain or fragment, source: E. coli BL21(DE3), purified (glutathione–Sepharose beads)) not shown | 
2 |  | B1 | Kd [2]: ~1500 nM
3 | binds | GST–KHC(876-917) (domain or fragment, source: E. coli BL21(DE3), purified (glutathione–Sepharose beads)) not shown | 
4 |  | B2 | stoichiometry N [3]: 1
